{
  "source": "patent US20250243290A1",
  "assay_in_all_cases": "peptide-array ELISA [Con't]",
  "key": {"[1]": {"molecular_target": "2LS2…2RPG"}, "[2]": {"molecular_target": "2LS2…2…2"}, "[3]": {"molecular_target": "2LSCGSR2…"}, "[4]": {"molecular_target": "2TREQNRI2…2R"}, "[5]": {"molecular_target": "2…"}, "[6]": {"molecular_target": "C22SK2…2CQA2TREQNRI2T2RPC"}, "[7]": {"molecular_target": "C2T2RPGWY2…2…"}, "[8]": {"molecular_target": "CAPLRK2…2TSTSPTRC"}, "[9]": {"molecular_target": "CAV2…2…"}, "[10]": {"molecular_target": "CDQVETQA2…2RLC"}, "[11]": {"molecular_target": "CGWY2ALSKQEG2RL2CQA2TREQNRI2T2RPC"}, "[12]": {"molecular_target": "CI2RPHQI2…2…"}, "[13]": {"molecular_target": "CLSKQEG2RL2APLRKCQA2TREQNRI2T2RPC"}, "[14]": {"molecular_target": "CLSKQEG2RL2…2TREQNRIC"}, "[15]": {"molecular_target": "CNASMDAV2…2TREQNRI2T2RPC"}, "[16]": {"molecular_target": "CNASMDAV2…2TSTSPTRC"}, "[17]": {"molecular_target": "CNWVPE2LS2GSR2…2TSTSPTRC"}, "[18]": {"molecular_target": "CQA2TREQNRI2T2RPCQA2TREQNRI2T2RPC"}, "[19]": {"molecular_target": "CQA2TREQNRI2T2…2RLC"}, "[20]": {"molecular_target": "CQTAQM22SK2…2TSTSPTRC"}, "[21]": {"molecular_target": "CQTAQM22SK2…2…"}, "[22]": {"molecular_target": "CTSSTDI2RPHQI2NVCAPLRK2…"}, "[23]": {"molecular_target": "CTSSTDI2RPHQI2NVCQA2TREQNRI2T2RPC"}, "[24]": {"molecular_target": "DI2…", "sequence (peptide, as listed by the source)": "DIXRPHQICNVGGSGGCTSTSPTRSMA"}, "[25]": {"molecular_target": "DVV2…"}, "[26]": {"molecular_target": "EQNRI2…2RL"}, "[27]": {"molecular_target": "NWVPE2…2T2"}, "[28]": {"molecular_target": "PE2LS2…2R"}, "[29]": {"molecular_target": "QEG2…2APGTFSN"}, "[30]": {"molecular_target": "QNRI2…2R"}, "[31]": {"molecular_target": "REQNRI2…2RL"}, "[32]": {"molecular_target": "S2…2…"}, "[33]": {"molecular_target": "STDI2…", "sequence (peptide, as listed by the source)": "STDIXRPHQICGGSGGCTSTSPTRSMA"}, "[34]": {"molecular_target": "VPE2LS2…2R"}, "[35]": {"molecular_target": "VPE2LSCGSR2…"}, "[36]": {"molecular_target": "…22SK2CAPLRK2…"}, "[37]": {"molecular_target": "…22SK2CQA2TREQNRI2T2RPC"}, "[38]": {"molecular_target": "…2LS2GCLSKQEG2RL2APLRKC"}, "[39]": {"molecular_target": "…2RLCAPLRK2…"}, "[40]": {"molecular_target": "…2R", "sequence (peptide, as listed by the source)": "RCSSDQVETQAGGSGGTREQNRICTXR"}, "[41]": {"molecular_target": "…2SK2SPGQ"}, "[42]": {"molecular_target": "…2TREQNRI2T2RPC"}, "[43]": {"molecular_target": "…2TSTSPTRC"}, "[44]": {"molecular_target": "…2…2…"}, "[45]": {"molecular_target": "…2…"}, "[46]": {"molecular_target": "CDQVETQA2…2TREQNRI2T2RPC"}, "[47]": {"molecular_target": "E2LSCGSR2…2T2"}, "[48]": {"molecular_target": "SCGSR2…", "sequence (peptide, as listed by the source)": "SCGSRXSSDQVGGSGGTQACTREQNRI"}, "[49]": {"molecular_target": "…2KP2…2…"}, "[50]": {"molecular_target": "…2TSTSPTRC", "remark": "listed apart in the source"}, "[51]": {"molecular_target": "…2…", "remark": "listed apart in the source"}},
  "note": "“And” between values parts separate entries of the source, which are not always exact repeats. Identical values can stand only once. Like-named read-outs stand apart in the source and are kept apart here.",
  "data": [
    {"substance": "agonistic TNFR2 antibody MR2-1", "values": [
      {"measurement": "Raw luminescence data", "setting": "[1]", "result": 162},
      {"measurement": "Raw luminescence data", "setting": "[2]", "result": 167},
      {"measurement": "Raw luminescence data", "setting": "[3]", "result": 157},
      {"measurement": "Raw luminescence data", "setting": "[4]", "result": 164},
      {"measurement": "Raw luminescence data", "setting": "[5]", "result": 170},
      {"measurement": "Raw luminescence data", "setting": "[6]", "result": 158},
      {"measurement": "Raw luminescence data", "setting": "[7]", "result": 161},
      {"measurement": "Raw luminescence data", "setting": "[8]", "result": 167},
      {"measurement": "Raw luminescence data", "setting": "[9]", "result": 171},
      {"measurement": "Raw luminescence data", "setting": "[10]", "result": 157},
      {"measurement": "Raw luminescence data", "setting": "[11]", "result": 158},
      {"measurement": "Raw luminescence data", "setting": "[12]", "result": 165},
      {"measurement": "Raw luminescence data", "setting": "[13]", "result": 158},
      {"measurement": "Raw luminescence data", "setting": "[14]", "result": 160},
      {"measurement": "Raw luminescence data", "setting": "[15]", "result": 157},
      {"measurement": "Raw luminescence data", "setting": "[16]", "result": 164},
      {"measurement": "Raw luminescence data", "setting": "[17]", "result": 161},
      {"measurement": "Raw luminescence data", "setting": "[18]", "result": 166},
      {"measurement": "Raw luminescence data", "setting": "[19]", "result": 171},
      {"measurement": "Raw luminescence data", "setting": "[20]", "result": 164},
      {"measurement": "Raw luminescence data", "setting": "[21]", "result": 161},
      {"measurement": "Raw luminescence data", "setting": "[22]", "result": 158},
      {"measurement": "Raw luminescence data", "setting": "[23]", "result": 166},
      {"measurement": "Raw luminescence data", "setting": "[24]", "result": 166},
      {"measurement": "Raw luminescence data", "setting": "[25]", "result": 159},
      {"measurement": "Raw luminescence data", "setting": "[26]", "result": 159},
      {"measurement": "Raw luminescence data", "setting": "[27]", "result": 168},
      {"measurement": "Raw luminescence data", "setting": "[28]", "result": 162},
      {"measurement": "Raw luminescence data", "setting": "[29]", "result": 167},
      {"measurement": "Raw luminescence data", "setting": "[30]", "result": 170},
      {"measurement": "Raw luminescence data", "setting": "[31]", "result": 161},
      {"measurement": "Raw luminescence data", "setting": "[32]", "result": 171},
      {"measurement": "Raw luminescence data", "setting": "[33]", "result": 159},
      {"measurement": "Raw luminescence data", "setting": "[34]", "result": 170},
      {"measurement": "Raw luminescence data", "setting": "[35]", "result": 165},
      {"measurement": "Raw luminescence data", "setting": "[36]", "result": 168},
      {"measurement": "Raw luminescence data", "setting": "[37]", "result": 158},
      {"measurement": "Raw luminescence data", "setting": "[38]", "result": 164},
      {"measurement": "Raw luminescence data", "setting": "[39]", "result": 165},
      {"measurement": "Raw luminescence data", "setting": "[40]", "result": 160},
      {"measurement": "Raw luminescence data", "setting": "[41]", "result": "163 and 156"},
      {"measurement": "Raw luminescence data", "setting": "[42]", "result": 163},
      {"measurement": "Raw luminescence data", "setting": "[43]", "result": 159},
      {"measurement": "Raw luminescence data", "setting": "[44]", "result": 160},
      {"measurement": "Raw luminescence data", "setting": "[45]", "result": "166 and 165"},
      {"measurement": "Raw luminescence data", "setting": "[46]", "result": 154},
      {"measurement": "Raw luminescence data", "setting": "[47]", "result": 153},
      {"measurement": "Raw luminescence data", "setting": "[48]", "result": 155},
      {"measurement": "Raw luminescence data", "setting": "[49]", "result": 150},
      {"measurement": "Raw luminescence data", "setting": "[50]", "result": 154},
      {"measurement": "Raw luminescence data", "setting": "[51]", "result": 155}
    ]}
  ]
}
